In patent publication US7259247:

Target: CD28 (UniProt P10747)
Assay: cell-based or functional assay

UniProt P10747, sequence (P10747 19-220 limits assumed): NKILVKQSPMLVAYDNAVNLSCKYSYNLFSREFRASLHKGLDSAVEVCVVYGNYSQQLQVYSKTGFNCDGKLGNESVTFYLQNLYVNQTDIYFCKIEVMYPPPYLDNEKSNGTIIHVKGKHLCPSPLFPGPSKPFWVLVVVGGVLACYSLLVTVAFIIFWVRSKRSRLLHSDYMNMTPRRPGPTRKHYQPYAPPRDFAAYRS

expression of other activation antigens on CD4+ T cells, suboptimal OKT3, plate-bound antibody costimulation: 4 to 100 fold
Substance: anti-CD28 antibody 9.3
